Experimental data: the DeepSol protein solubility set

assay: soluble on expression in E. coli; label from the status in PepcDB or PDB records

Sequence | soluble on expression in E. coli
MADSSSFFSSAFSSAKNLIPFAKNTEDKPVDADTASDAKDAKDSAIQEAVQNASAAINDVFTDAVDKLEEVKDTVVEQFSNGDEKKEEAVVEEKFDSVHVGVDGETAVQEAKEEVKEAQVVVKGVLADGTQIVEGVTDVAEAPVADEKKEETVAAPLDSAAPVEEHKEESHSSEHTEAPAHTEDSIVQADPEARIVFQGVLADGTQIIEAVSANPPCIQEESAPAAAVSEEVGEAVHVVPVDQAPEAPTSEAQDAAPIEEHVEVVHVAENASTPAATDAHEETKSAEEQTPVVDASPAQEIVKVEEHEHKEEAAPDESAPEAAHDSHVEETAAQVVDEVIEAVHVSANESAPEEHKEEVAAAATSEDQKEPAPASDEHTSESAVEGAIESVHIALTESAPVASDENTTEAAPGTVEEHKNEVHDPVDGASSDAPAEDHREAAASSESVEEPITAVHVEATESAAPADKVHEETKIDSAAETHADAPVVDASPAEDQASEVTEAPHVESAKSAPATSEDHKEDVAQATSEQVETQAPADEHKDDASPAEPTTVQDVIEAIPIVSTESTPAEHSAPAESAPALAEEHKDEAAPSEPVQDVPVEEVIEAVHIAPAESAPASVEEAAPSESTQAPVEEHKDATTAADSSHEEPKAESDAPAAESVETAPVEEHKDEASPTALESVEDVIEAVHVASTESAPAPVEDAASADSTQAPVEEQKDTAAAAEPSHEEAQADHAASVEDVIEAVHIASNESAPTTEAAPSESIQAEDHKDEAASTAEPAHEESVTVVEASHKEPQAESAAPVEENIESVHVASEESAPAPSGDAAPSESAPVSENPVEEVAVAYHVESIESVPTDAQSVEEPVVQQHVGTVEAAPEAAVDEESFDVVHVHSDAAHPETATPESGSEETFEKVEHSQVQEAPSSEEHNSSEPEIVEDVVEKQIVAAVASAPETQPEESPKKPRKLAEMAHESAFPVPYRSKLVEPFEPGQTLIVKGKTGEDSIRFTVNLHTNTADFSGNDVPLHVSVRFDEGKLVFNTFSKGEWGKEERKSNPYKKGDDIDIRIRAHDSKFQIFVDQKEVKEYEHRVPLSSITHFTIDGDVLVNYIHWGGKYYPVPYESGLAGEGLAPGKTLTVFGIPEKKAKRFHINLLKKNGDIALHLNARFDEKHVVRNSLINSAWGNEEREGKMPFEKAVGFDLEIHNEPYAFAVTVNGERFASYAHRLSPDEVNGLQIGGDVEITGIQLA | not soluble
MDLPDPYLPGAISLFEQLDKKLLVVLRDGRKLIGFLRSIDQFANLILEDVVERTFVEKYFCETGQGFMLIRGENVELAGEIDDTIETGLTQVSPEEFRRLEDEYIAKNPPKFLKRQAEKTEEHDA | not soluble
MSLRPSLDAWTKMECVMVKIKTSDGLEGWGEAFGHVMAPGTEAVINQILAPMLVGKDSVAINHRVAEMERPLHGLGRSGPVMYGLSAIDTALWDLAAQRANLPLFKFLGGDSGVLTKYASLMRYGGDTDAVAQNVERARSYGFRTIKLHETTIPAFRAARNAVDFDDKICLDVNCPWTVSEARDVAQEILEDGFHWLEEPIWPPEDFEGLAEVRLEGVPISAGENITTLHEFKLALETEAVDNLQPSVTKCGGVSMMRKIFSLSEVYPVTVIPHCFYWGPGYHATAHLAASCLNSTPLETAFITFAVEPHNLFNSHSDKVTLDDTPGLGFNANWEALDQFIISTNEVTEGHHHHHH | soluble
MEARNAEGLESCIEKIQEVKLSSFAELKAFRERKVALITGITGQDGSYLAELLLSKGYKVHGIIRRSSSFNTARIEHLYGNPVTHNGSASFSLHYGDMTDSSCLIKLISTIEPTEIYHLAAQSHVKVSFDLPEYTAEVDAVGTLRLLDAIHACRLTEKVRFYQASTSELYGKVQEIPQSELTPFYPRSPYAVAKMYGYWIVVNYREAYKMFACNGILFNHESPRRGETFVTRKITRSVAKISLRQQEHIELGNLSALRDWGHAKEYVEAMWRILQQDTPDDFVIATGKQFSVREFCNLAFAEIGEQLVWEGEGVDEVGKNQDGVVRVKVSPKYYRPTEVETLLGNPAKARKTLGWEPKITVPELVKEMVASDIALMEADPMA | not soluble
MSLSKIFVTGATGLIGIKLVQRLKEEGHEVAGFTTSENGQQKLAAINVKAYIGDILKADTIDQALADFKPEIIINQITDLKNVDMAANTKVRIEGSKNLIDAAKKHDVKKVIAQSIAFMYEPGEGLANEETSLDFNSTGDRKVTVDGVVGLEEETARMDEYVVLRFGWLYGPGTWYGKDGMIYNQFMDGQVTLSDGVTSFVHLDDAVETSIQAIHFENGIYNVADDAPVKGSEFAEWYKEQLGVEPNIDIQPAQPFERGVSNEKFKAQGGTLIYKTWKDGMNPIKEGHHHHHH | soluble
MGSDKIHHHHHHMDLVEEILRLKEERNAIILAHNYQLPEVQDIADFIGDSLELARRATRVDADVIVFAGVDFMAETAKILNPDKVVLIPSREATCAMANMLKVEHILEAKRKYPNAPVVLYVNSTAEAKAYADVTVTSANAVEVVKKLDSDVVIFGPDKNLAHYVAKMTGKKIIPVPSKGHCYVHQKFTLDDVERAKKLHPNAKLMIHPECIPEVQEKADIIASTGGMIKRACEWDEWVVFTEREMVYRLRKLYPQKKFYPAREDAFCIGMKAITLKNIYESLKDMKYKVEVPEEIARKARKAIERMLEMSK | not soluble
MAHHHHHHMFYLFDEKAMSTNIKVKSVKRLVYNRHIKGDEAVLSLDLSYDMSKAFNWNLKQLFLYVLVTYETPEKVKNEVIIQDYIITNKNVAKRTYKNFITKYSLKDYNNGLRNNNINLQVCYKYMPIVGLSRSYEGTKISYKLPAEYFDNLPSNYPLYYPDK | not soluble
MQILNKILPQVEFAIPRPSFDSLSRNKLVKKILSVFNLKQRFPQKNFGCPVNINKIRDSVIDKIKDSNSGNQLFCWMSQERTTYVSSMINRSIDEMAIHNGVVLTSDNKRNIFAAIEKKFPDIKLDEKSAQTSISHTALNEIASSGLRAKILKRYSSDMDLFNTQMKDLTNLVSSSVYDKIFNESTKVLQIEISAEVLKAVYRQSNTNLEHHHHHH | not soluble
SRLKLFSILSMMLLRPKDTVDSQGQFRGYLDMVINDILAPNLQWHAGRTAAAIRTAAISCLWALISSDILSAKQVQEAQETLMPQVLATLEDDSQTTRLMSCRIINMFLKNSGDTMEPEKFLKVYPELLKRLDDVSNDVRMAAASALLTWLKCIESLDGKSAYQSSVQFLYRELLVHLDDPESAIQDTVLEVLKEGSVLFPDVLVRETEAVVHKHRSATYCEQLLQHMQTMAAAR | soluble
MKLVDALGKPCPIPVIETKKALAELGLAGGTIEVLVDNEVAIENLKKLATKKQATLTAKQIEATVFSVKITVPEEATQQTSQSATDLVITIGSDQLGTGDEQLGRLLMKSYLQSLSEAETVPTQLLFFNRGAFLTNQAANTLADLQQLAEKGTTIQTCGACLDFYHLTDTLAIGSITNMYEIVETMNQAAKVITLLEHHHHHH | soluble
SNQDEPRCLFVKDADSQVDLQITFRGFSRPDPQLAASRLLRRVLAGGGCSRLHLNLRERLGIVYSVDAQVAAYDETGCFSIELSTAPENLLTAVEEVLGETRKLAAEPVGAEELRRVRQGYFFDLAYSEDSTFEMQVRYGWGELMGMVKGIDEERAEVEAVDEGTLQAVARRLFAPAALNLVAVGPVTATAKRRIEQLLRRYAKEFPTSSQPPGP | not soluble
MDLHLTVDLKKTKTLIDLADQAHLIIEQTTKLPKKEAAILFLLIDNQLVALGLAEEKATYKEVSFDHSILLKPTWDTELAYLAQAFLDDAKESGLTLEATPTTVKIPKSAVATVTNYKETVTFILERFGYSLFKKPAPKKARPAKARHKWTKEVSQIPFYIDTRQSKATVFWQKRNEMLIKAGATMMPEAPLNKDGSVGFSARFGEKLRDERKGQFKDFVTTEDIVLKSVNEVGLFLYFAGTNSWLELVDENGKTLNEWTVVE | not soluble
MEERGDSEPTPGCSGLGPGGVRGFGDGGGAPSWAPEDAWMGTHPKYLEMMELDIGDATQVYVAFLVYLDLMESKSWHEVNCVGLPELQLICLVGTEIEGEGLQTVVPTPITASLSHNRIREILKASRKLQGDPDLPMSFTLAIVESDSTIVYYKLTDGFMLPDPQNISLRR | soluble
MGSDKIHHHHHHMKGNAPVLAAVDISKGFRVYRAPHQRMLQAIWGERKKFYSEFWALRNVSFQVFPGEVVGVIGCNGSGKSTLLQILAGTLRPTSGQVVRPERVAALLELGAGFNMEYTGRENIIFNAMLLGLGEQEISERLDEIIQFADIGEFIDRPVRTYSSGMFVRLAFSIAAYVDADVLIVDEALAVGDAAFQFKCLNRLEELLLKGITILLVSHDIQLIKSYCSRAIYLSKGRVIFDGDCETATELYLRDSIETQRAEVRSGSLIASGEHGNSVIAYGNGQGRFLSIRMGVLDEARDYFDSGERVWVEVLVQFDLPVPEHPKITLTIRDQRGYNLYGINNLLLGKALNVEPDGRLRTRISFDCDLQAGEYALTFRLENSLSESVCELMDKKVNAAIFRVFNSPKCFDAVVNLHGAFEPVPFCCETRATQ | not soluble
MGINVRAVEIQDARAIHRICIQDNVLPYMVFLPSMRVEAMENRIRNLAPNQFEFVAEYDGEVVGFVGLTQSPGRRSHSGDLFIGVDSEYHNKGIGRALLTKMLDLADNWLMLERVELGVLETNPKAKALYEKFGFVEEGVKIGNLKAHGKFINEIMMSRFRPNGLIVHNE | not soluble
PLGSDSAKLIFINQINDCKDGQKLRFLGCVQSYKNGILRLIDGSSSVTCDVTVVLPDVSIQKHEWLNIVGRKRQDGIVDVLLIRSAVGINLPRYRQMVSERQKCD | soluble
MSLSWIYDAHIHLSDPEYKSDMNMILNYMDLLKIKACCVSMDLETSNETMSLYEKSKNILPFIGIHPEMAQKESKPVYDLIEKNNEIISGVGEIGLDRTYIDTEDEWNVQKEVFSKQLSLAEKFNKPVSIHSRKTLSDIFEILPSYKIPGILLHWFDGNKSQLRTAMDNEYFVSYGPLLIYAHDKQTLLTKTDPNRLLVETDGPVKFSRCFEYKTTEIMFVSSVIFCASKLLHMPYEKLLEQIEGNSKRFLGIEGHHHHHH | soluble
MAHHHHHHMPVAPLHPELQRVLKENRRTRAFDPAAWIEMKCAKLNDYMQRCGLKACVTSVSGGIDSAVVLAMCAHAMRAHNSPIQKNVGLCQPIHSSDWALRRGKENIAACGATEVVVDQTALHTELATLVERAAGIEGGAFARGQLRSYMRTPPGFYVAQLLTQEGTPAVVMGTGNKDEDFYLGYFCKAGDGVVDVQIISDLHKSEVLLVAEVLGVPENTRHAAPSADLWEGQTDEDELGFPYDFVELFTEWYLKQRETTKIKFLNSLCDEARNQFERYVAACELVHRRNAHKLQGQVNL | not soluble
SLQLESLISAAPALSQQAVDQEWSYMDFLEHLLHEEKLARHQRKQAMYTRMAAFPAVKTFEEYDFTFATGAPQKQLQSLRSLSFIERNENIVLLGPSGVGKTHLAIAMGYEAVRAGIKVRFTTAADLLLQLSTEQRQGRYKTTLQRGVMAPRLLIIDEIGYLPFSQEEAKLFFQVIAKRYEKSAMILTSNLPFGQWDQTFAGDAALTSAMLDRILHHSHVVQIKGESYRLRQKRKAGVIAEANP | not soluble
KLEFREVDKDALVNDEKLLREFFGIYVLAHYRNRPSDLAILLDMPNHLPFIVTVNGKPVCSLHIAVEGNLDDETIEKIKEGYKPKGQIIPDLMLKHYWDFEFPKLVGARVVRIATHPSVMDMGIGSFALAKIVEWAYGRDMDWVGSGFGVSPELLRFWAKNHFTPVHITPQRNE | not soluble
